Assays:
[1] = molecular target: T1, human PRLR on HEK293/hPRLR cells (Homo sapiens, UniProt P16471); assay: FACS cell surface binding
T1 construct: HA; expressed in transfected cells; host or cells: HEK293
T1 sequence (P16471 25-622): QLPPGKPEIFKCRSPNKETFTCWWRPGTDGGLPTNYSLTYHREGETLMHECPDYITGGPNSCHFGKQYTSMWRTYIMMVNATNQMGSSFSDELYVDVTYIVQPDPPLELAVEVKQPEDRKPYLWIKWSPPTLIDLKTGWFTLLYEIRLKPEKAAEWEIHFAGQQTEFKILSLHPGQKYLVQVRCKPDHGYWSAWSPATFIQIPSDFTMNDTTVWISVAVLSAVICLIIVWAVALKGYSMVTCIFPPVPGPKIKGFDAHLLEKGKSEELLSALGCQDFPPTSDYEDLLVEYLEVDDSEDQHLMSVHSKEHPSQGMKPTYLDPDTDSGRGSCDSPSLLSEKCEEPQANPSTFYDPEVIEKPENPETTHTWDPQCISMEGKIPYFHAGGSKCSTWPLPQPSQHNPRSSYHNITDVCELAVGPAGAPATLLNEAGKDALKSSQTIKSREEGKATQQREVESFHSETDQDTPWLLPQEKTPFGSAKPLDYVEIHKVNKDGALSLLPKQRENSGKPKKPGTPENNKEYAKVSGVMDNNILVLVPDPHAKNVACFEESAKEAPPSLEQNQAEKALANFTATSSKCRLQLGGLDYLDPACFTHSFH
Experimental: (§1) The ability of anti-PRLR antibodies to selectively bind PRLR expressing cell lines was next determined. Human, monkey Macaca fascicularis, and mouse PRLR constructs with an HA tag were stably introduced into HEK293 cells via Lipofectamine 2000-mediated transfection methodology. Transfectants (HEK293/hPRLR, HEK293/mfPRLR and HEK293/mPRLR) were selected for at least 2 weeks in complete growth media plus G418.
(§2) Cell surface expression of PRLR on 293/hPRLR cells was assessed via FACS analysis. Briefly, 1×10^5 cells were incubated with 10 μg/ml of Control antibody I, or an isotype control for 30 min on ice in antibody dilution buffer. Following two washes with antibody dilution buffer, cells were incubated with 10 μg/ml of PE conjugated anti-human secondary antibodies for 30 min on ice. Following two additional washes, samples were run on a Hypercyt® cytometer and analyzed in ForeCyt™ (IntelliCyt, Albuquerque, N. Mex.). The mean fluorescence intensities (MFI) were expressed as fold change above isotype control levels (background). FACS binding confirmed that Control I selectively bound to 293/hPRLR expressing cells with MFIs that were 30 fold above background (isotype ctrl) levels and less than 2 fold binding on parental cells.
(§3) Next, the anti-PRLR antibodies were tested via FACS for selective binding to the engineered overexpressing PRLR HEK293 cell lines, as well as to non-expressing HEK293 cells and a native PRLR expressing cell line (T47D).

[2] = molecular target: T2, monkey PRLR on HEK293/mfPRLR cells (Macaca fascicularis, UniProt A0A2K5WXK1); assay: FACS cell surface binding
T2 construct: HA; expressed in transfected cells; host or cells: HEK293
T2 sequence (A0A2K5WXK1 25-619): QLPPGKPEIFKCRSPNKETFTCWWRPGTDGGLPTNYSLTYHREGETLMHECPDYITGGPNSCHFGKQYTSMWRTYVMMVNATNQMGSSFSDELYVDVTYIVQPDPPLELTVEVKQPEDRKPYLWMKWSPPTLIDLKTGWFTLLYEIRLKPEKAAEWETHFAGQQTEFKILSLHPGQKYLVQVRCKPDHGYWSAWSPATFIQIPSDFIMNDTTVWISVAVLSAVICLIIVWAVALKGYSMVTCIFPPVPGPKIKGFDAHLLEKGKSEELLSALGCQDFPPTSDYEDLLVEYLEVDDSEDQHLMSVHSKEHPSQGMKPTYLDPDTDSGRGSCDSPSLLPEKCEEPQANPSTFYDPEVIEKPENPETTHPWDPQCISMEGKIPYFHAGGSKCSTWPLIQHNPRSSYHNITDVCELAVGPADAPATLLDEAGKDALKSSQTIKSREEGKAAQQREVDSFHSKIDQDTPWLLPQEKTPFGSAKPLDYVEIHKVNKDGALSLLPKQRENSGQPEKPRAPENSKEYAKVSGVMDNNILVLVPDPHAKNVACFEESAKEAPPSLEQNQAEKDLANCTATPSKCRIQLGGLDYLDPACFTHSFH
Experimental: as §1, §2, §3

[3] = molecular target: T3, mouse PRLR on HEK293/mPRLR cells (Mus musculus, UniProt Q08501); assay: FACS cell surface binding
T3 construct: HA; expressed in transfected cells; host or cells: HEK293
T3 sequence (Q08501 20-608): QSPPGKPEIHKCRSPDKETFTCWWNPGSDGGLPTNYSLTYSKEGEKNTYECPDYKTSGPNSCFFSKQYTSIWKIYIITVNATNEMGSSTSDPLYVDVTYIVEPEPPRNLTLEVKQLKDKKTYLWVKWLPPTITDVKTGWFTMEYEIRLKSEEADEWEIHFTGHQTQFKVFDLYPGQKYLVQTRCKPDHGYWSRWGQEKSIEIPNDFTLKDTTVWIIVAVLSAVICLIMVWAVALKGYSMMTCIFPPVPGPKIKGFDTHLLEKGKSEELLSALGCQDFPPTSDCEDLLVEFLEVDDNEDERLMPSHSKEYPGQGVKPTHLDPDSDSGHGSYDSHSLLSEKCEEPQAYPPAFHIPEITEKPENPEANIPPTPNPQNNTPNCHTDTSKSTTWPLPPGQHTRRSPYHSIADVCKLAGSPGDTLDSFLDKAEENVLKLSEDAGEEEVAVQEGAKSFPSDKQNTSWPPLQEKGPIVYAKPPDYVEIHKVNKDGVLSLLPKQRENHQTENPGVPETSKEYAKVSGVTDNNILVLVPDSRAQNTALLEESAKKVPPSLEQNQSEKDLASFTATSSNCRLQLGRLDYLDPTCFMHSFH
Experimental: as §1, §2, §3

[4] = molecular target: T4, native PRLR expressing T47D cells (Homo sapiens, UniProt P16471); assay: FACS cell surface binding
T4 construct: a native PRLR expressing cell line (T47D); endogenous in cells; host or cells: T47D
T4 sequence (P16471 25-622): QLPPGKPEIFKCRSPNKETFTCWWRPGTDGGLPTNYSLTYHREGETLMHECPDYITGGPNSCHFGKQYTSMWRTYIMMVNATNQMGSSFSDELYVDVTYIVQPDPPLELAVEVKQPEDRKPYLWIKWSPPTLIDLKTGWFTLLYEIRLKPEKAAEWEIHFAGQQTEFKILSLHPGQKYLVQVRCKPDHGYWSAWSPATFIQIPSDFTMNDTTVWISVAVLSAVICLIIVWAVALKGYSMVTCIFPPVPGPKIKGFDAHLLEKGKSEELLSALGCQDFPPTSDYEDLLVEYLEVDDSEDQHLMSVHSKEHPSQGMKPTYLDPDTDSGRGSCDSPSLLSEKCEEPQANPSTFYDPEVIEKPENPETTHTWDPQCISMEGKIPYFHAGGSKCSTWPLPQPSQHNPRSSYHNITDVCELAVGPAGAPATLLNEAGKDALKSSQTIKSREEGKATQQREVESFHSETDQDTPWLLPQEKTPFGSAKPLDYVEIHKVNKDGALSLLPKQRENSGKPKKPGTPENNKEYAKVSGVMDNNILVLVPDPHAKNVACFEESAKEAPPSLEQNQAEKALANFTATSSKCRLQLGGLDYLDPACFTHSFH
Experimental: as §2, §3

HEK293 parental cells = assay: FACS cell surface binding; set-up: species or system human
Experimental: as §1, §2, §3

[5] = molecular target: T5, monomeric human PRLR (hPRLR.mmh; SEQ ID NO:401) (Homo sapiens, UniProt P16471); assay: Surface plasmon resonance (Biacore T200), antibody-capture format; type: binding; details: analyte hPRLR.mmh
T5 construct: soluble monomeric (hPRLR.mmh); mmh (myc-myc-hexahistidine) (C)
Experimental: (§4) Antibodies, expressed as human IgG1 Fc (i.e., “H1H” designations), were captured onto an anti-human Fc sensor surface (mAb-capture format), and soluble monomeric (hPRLR.mmh; SEQ ID NO:401, or Macaca fascicularis (mf) PRLR.mmh; SEQ ID NO:403) or dimeric (hPRLR.mFc; SEQ ID NO:402) PRLR protein was injected over the sensor surface. Measurements were conducted on a T200 Biacore instrument. Kinetic association (ka) and dissociation (kd) rate constants were determined by processing and fitting the data to a 1:1 binding model using Scrubber 2.0 curve fitting software.

[6] = system: Macaca fascicularis PRLR (mfPRLR.mmh; SEQ ID NO:403); assay: as above; type: binding; details: analyte mfPRLR.mmh
Experimental: as §4

[7] = molecular target: T6, dimeric human PRLR (hPRLR.mFc; SEQ ID NO:402) (Homo sapiens, UniProt P16471); assay: as above; type: binding; details: analyte hPRLR.mFc
T6 construct: dimeric (hPRLR.mFc)
Experimental: as §4

T6 sequence (P16471 with tags, fused parts or gaps): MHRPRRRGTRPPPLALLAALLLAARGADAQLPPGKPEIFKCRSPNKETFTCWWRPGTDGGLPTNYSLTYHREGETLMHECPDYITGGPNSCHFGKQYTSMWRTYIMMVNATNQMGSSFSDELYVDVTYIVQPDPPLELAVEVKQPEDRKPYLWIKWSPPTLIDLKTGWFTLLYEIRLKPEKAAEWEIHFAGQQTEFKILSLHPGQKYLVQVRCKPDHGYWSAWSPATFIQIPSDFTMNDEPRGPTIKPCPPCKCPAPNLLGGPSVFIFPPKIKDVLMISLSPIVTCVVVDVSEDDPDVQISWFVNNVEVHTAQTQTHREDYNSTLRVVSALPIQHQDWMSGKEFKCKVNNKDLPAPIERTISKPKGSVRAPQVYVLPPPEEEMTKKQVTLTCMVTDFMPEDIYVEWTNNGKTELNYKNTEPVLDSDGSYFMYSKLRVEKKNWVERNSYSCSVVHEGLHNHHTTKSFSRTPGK
T5 sequence (P16471 with tags, fused parts or gaps): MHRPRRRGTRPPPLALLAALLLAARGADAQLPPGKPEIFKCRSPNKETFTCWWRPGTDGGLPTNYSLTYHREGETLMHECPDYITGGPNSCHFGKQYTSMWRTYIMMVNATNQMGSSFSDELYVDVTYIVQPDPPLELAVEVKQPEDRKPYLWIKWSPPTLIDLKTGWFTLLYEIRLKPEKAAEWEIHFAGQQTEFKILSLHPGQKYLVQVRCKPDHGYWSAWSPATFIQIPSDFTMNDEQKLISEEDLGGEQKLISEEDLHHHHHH
Sequence of Macaca fascicularis PRLR (mfPRLR.mmh; SEQ ID NO:403) (as listed by the source): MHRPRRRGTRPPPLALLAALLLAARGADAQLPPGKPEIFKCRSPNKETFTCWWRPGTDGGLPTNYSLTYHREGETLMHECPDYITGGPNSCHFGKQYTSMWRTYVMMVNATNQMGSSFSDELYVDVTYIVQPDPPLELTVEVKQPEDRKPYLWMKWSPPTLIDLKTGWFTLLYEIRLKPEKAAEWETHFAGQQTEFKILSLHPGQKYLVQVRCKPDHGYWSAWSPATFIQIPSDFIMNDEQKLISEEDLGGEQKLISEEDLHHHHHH

FACS Cell Binding [1] [Fold Above Background]	FACS Cell Binding [2] [Fold Above Background]	FACS Cell Binding [3] [Fold Above Background]	FACS Cell Binding [4] [Fold Above Background]	ka ([5]; 25° C.) [M/s]	kd ([5]; 25° C.) [s⁻¹]	ka ([5]; 37° C.) [M/s]	kd ([5]; 37° C.) [s⁻¹]	kd ([6]; 25° C.) [s⁻¹]	kd ([6]; 37° C.) [s⁻¹]	ka ([7]; 25° C.) [M/s]	kd ([7]; 25° C.) [s⁻¹]	ka ([7]; 37° C.) [M/s]	kd ([7]; 37° C.) [s⁻¹]	Molecule	FACS Cell Binding (HEK293 parental cells) [Fold Above Background]	ka ([6]; 25° C.) [M/s]	ka ([6]; 37° C.) [M/s]
29	18	1	31	852000	0.000257	1.58e+06	0.00096	0.000325	0.0012	931000	4.08e-05	1.88e+06	0.000127	H1H6966N: anti-PRLR antibody, human IgG1 Fc form of H2M6966N of Table 1; HCVR/LCVR SEQ ID NOs 338/346 (antibody, V domains shown, human IgG1 Fc) VH: QVQLVQSGAEVQKPGASVKVSCKVSGYTLTALSIHWVRQAPGKGLEWMGNFDPGDGETIHAQKFQGRVTMTGDTSTDTAYMELSSLRSEDTAVYYCVGVTFDYWGQGTLVTVSS VL: EIVMTQSPATLSVSPGERATLSCRASQSVASNLAWYQQKPGQAPRLLLYGASTRATGIPARFSGSGSGTEFTLTISSLQSEDFALYYCQHYNNWPLTFGGGTKVEIK	1	782000	1.22e+06
38	28	2	41	246000	0.000332	424000	0.000933	0.000585	0.00162	407000	4.45e-05	907000	9.73e-05	H1H6967N: anti-PRLR antibody, human IgG1 Fc form of H2M6967N of Table 1; HCVR/LCVR SEQ ID NOs 354/362 (antibody, V domains shown, human IgG1 Fc) VH: EVQLVESGGDLVHPGRSLRLSCAASGFPFDEYAMHWVRQVPGKGLEWVSGISWSNNNIGYADSVKGRFTISRDNAKNSLYLQMNSLRPEDTAFYYCAKSGIFDSWGQGTLVTVSS VL: EIVMTQSPATLSVSPGERATLSCRASQSVSRDLAWYQQKPGQAPRLLIHGASTRATGIPARFSGSGSGAEFTLIISSLQSEDFAVYYCQQYNNWPLTFGGGTKVEIK	1	190000	356000

Second part, the molecule before the results:

Molecule	FACS Cell Binding [1] [Fold Above Background]	FACS Cell Binding [2] [Fold Above Background]	FACS Cell Binding [3] [Fold Above Background]	FACS Cell Binding [4] [Fold Above Background]	ka ([5]; 25° C.) [M/s]	kd ([5]; 25° C.) [s⁻¹]	ka ([5]; 37° C.) [M/s]	kd ([5]; 37° C.) [s⁻¹]	kd ([6]; 25° C.) [s⁻¹]	kd ([6]; 37° C.) [s⁻¹]	ka ([7]; 25° C.) [M/s]	kd ([7]; 25° C.) [s⁻¹]	ka ([7]; 37° C.) [M/s]	kd ([7]; 37° C.) [s⁻¹]	FACS Cell Binding (HEK293 parental cells) [Fold Above Background]	ka ([6]; 25° C.) [M/s]	ka ([6]; 37° C.) [M/s]
H1H6960N: anti-PRLR antibody, human IgG1 Fc form of H2M6960N of Table 1; HCVR/LCVR SEQ ID NOs 322/330 (antibody, V domains shown, human IgG1 Fc) VH: EVQLVESGGGLVKPGGSLRLSCAASGITFSSYSMNWVRQAPGKGLEWVSSISTRSSLIHYADSVKGRFTISRDNAKNSLYLQMNSLRDEDTAVYYCARWDAAAAFDYWGQGTLVIVSS VL: DIQLTQSPSFLSASVGDRVTITCWASQGISSYLAWYQQKPGKAPKLLIYVASTLQSGVPSRFSGSGSGTEFTLTISSLQPEDFATYFCQQLNSYPLTFGGGTKVEIK	29	23	1	33	108000	0.000729	122000	0.00198	0.000583	0.00128	252000	3.56e-05	294000	0.000147	1	94000	86400
H1H6959N2: anti-PRLR antibody, human IgG1 Fc form of H2M6959N2 of Table 1; HCVR/LCVR SEQ ID NOs 306/314 (antibody, V domains shown) VH: EVQLVESGGGLVQPGRSLRLSCAASGFTFDDYAMHWVRQAPGKGLEWVSGISWHSGIIGYADSVKGRFTISRDNAKNSLYLQMNSLRTEDAALYYCAKIGSYFYFDSWGQGTLVTVSS VL: EIVLTQSPGTLSLSPGERATLSCRASQSVSSNYLAWYQQKPGQAPRLLIYGASSRATGIPDRFSGSGSGTDFTLTISRLEPEDFAVYYCQQFGSSGYTFGQGTNLEIK	6	11	2	9	179000	0.036	40600	0.0277	0.0167	0.0165	359000	0.000518	509000	0.0023	1	129000	44600

From US10925971B2, “Methods of treating PRLR positive breast cancer” (Regeneron Pharmaceuticals, Inc., priority 2016, dated 2021)
